# Assay results as given in the DeepSol protein solubility set.
# Assay: soluble on expression in E. coli; label from the status in PepcDB or PDB records
row,Sequence,soluble on expression in E. coli
1,MAHHHHHHMIPRYDGLVPAIRGPASACAVASVNATPSSTTKRTAAATTVARYVICPVETTGTENAHVNATAERERRLFAFLPSVDCAAPPRELRVSSHYFEDALVASVASSDAESGEDLDEGEESHTSTARRGNTREDGAHGSNSGSRKRRRARRREPMRLEYDGFLAPATEATKRVRLVSTPASEYSHLTCVLLQLPTAWREQDMDEGEGHGRTACVSSSSTSKPLITSMPLRRPILQLWGERNTAAAGPNDGSLCTGSSAASISAAWGSDTRLQISKKDWKTMDAAEEDLHKPTNWSDDDGGDASDEGRGKSASGADDAISARARKREREEATSIAVRSFLAGTKEALRQQGAVGAADGFAQPQPAVRSDNAAPVSARVETSAPVKAAAKRATVTVPLSSGSSGSRVRSSVATPAVPPTHALTTNSAAPLPSSGVAPPDGSASLDSLACTVVTGMLSSEARRAATLMELQKRILKQLPEFATMSQKMKSTATKQEAVAWFQTSQQALRAWLVEHGHTIDSDGTVTFGDA,not soluble
2,MAHHHHHHMITGGSEKLLTKDSVAQYIRRVSSGLLYESAVLPIQFLIRGFRDIVPCEALASLGEQEMMSLLCGCRANDKKPLWTLAEIKSILVAEHGYQTDSPQMTMLQNILANRLTPAEQRSFLLFCTGCPRLPVGGVGALGAITVVKRSDFTMFHGSSGRNSGGSDGIGGADRKEQNPKQPGEWNSLPNETDWPLPSVNTCFRYLKLPPYPTEDLMYKKLRLSIMQGGETFQLS,not soluble
3,MAHHHHHHMITMECITKKIKTIFQNSIQKCFPSISEDAIVTYANLKFGHYQCNNAINIYKKYGKELNYENAQKISEFIISNINETIFEEIKSSPQGFITVKLSKDYIETSLKKLFNGEKIDISININDIKESNENYGNVLVDFSSPNIAKEMHVGHLRSTIIGDSICRVFEFLKINTHRVNHVGDWGTQFGMIINYIKTHYPNFKEEMPDLSNLTSLYQESKKMYDADKEFEKSSKENAIKLQNNDEDCKFVWNKLCESSKKEFDKLYNILDIKLEYVGESFYVPMLSTVLDLLKESKLLTNIGDAICYQSENFKVPLFLQKSNGGYGYDSTDVAALYYRLTQLNCNCVIYVTDIGQLTHFETIFDLIKKTNWGDKNAKLMHVGFGFVLNEDNKKFKTRSGTTVKLINLIKEGTERAKRDLLQRIETKSEEEKSYFENVDIDQLSESLCVSAIKYFDLKQHRNSDYKFSYDNMLNVKGNTGIYIIYGYSRICSIFRKSTINVEDISKDELSLTSIYEINLGLHILKFPDIFYYILKNMLVHKLAEYMYDLTTTFTAFYENCKVLNNENEKSRLLLCSITKSLLKLCMELLGMKPIEKL,soluble
4,MAHHHHHHMKAVSIRQVSAIIILDNNGKRIAVKYYNDQAPLKGENKLVPKNTNKDLVSNAFENTYNNLRTVEDQKLFESDITEKARKLGGDSSETEVLVLNKFTILYLLINDVSIYIVGEESDNEIILHEIMQTVQQCLDNVTNNQIGKKQLLDKLDSIYLILDEIADSGIIMETNPNVIINRLYMHESDLQEHTPLNQAISSAKENIIRSLLSGT,not soluble
5,MAHHHHHHMKKHKVPCKKFYRQRAHCNPLSDSYIRYPINCSYVDWRVHYPHLAAHGSDAQAEPINSVEATKHITNTEVERPPDEDPPTLQLNTNKYPIDYNQGPPKCAPHAEVTILDIGCGYGGLLFELSKTFPNKLILGMEIRDKITNYVGEKIHSYRKNYPPQYKNISVVRTNAMKFLPNYIKKNQIEKLFFCFPDPHFKKQNWRRRTITIESLSLYYYLLKRDGLIYFITDVYTLFLWVRFCFSKYPGFRLLSPEECQGDICVRLIHHSSEESKRVSKNKQAMYFCVARKE,not soluble
6,MAHHHHHHMKKLGLVLDAAAVEKSQRDLQSYQIKNNNSLQLRAFLLNESGMFTKDGRKLPGSVTKEVIDDTSKRIIGRGASGAVYFAKLKDGGPVALKHIPITSKPHRDEVDRELSFFSSQSNSPFVMKNLGAFWDSEEAAIVIPMEWMAYTLKDLSCFWEGIEETMLRDIFFQVVSGLVYLHDTKRVIHRDLKPSNLLIRDDGYVKIGDFGVSKLVHTLDVSSTYVGTMYFMAPERLEQGAYGFNSDVWSLGLTVLSTITGKNPWAPPEEMNIFQLLGRIAGDTTPTLPEKPAYSEEARDFVKKCLVRDPQERPSTAELLKHPFFKGCTEASAVANVKQGVDYMTRLINSDAKKNGLLKRSPEDVTKEVNAKLDRLGDL,soluble
7,MAHHHHHHMKPSSISGEAPPLAVVGGNCSVFGFDRFGAERYWTVTGDQVTAMALMPWTSVSDSGSAPLSLLVASDDFEVRVYDGEEAIATVHEVDRVQKLVPLWQPSRNLDTETAAADSAGRYAYLLENGTVGMYERGERVWRVRGKSVPVSAAFCDVDGDGVAELVIGWSNGRVEVRTDRGGGLEKGGSVLFRDTYSSAVAAVLSEDYRQDGVPLPVICTVDGTVRGLTLLETRKDEAAEVRQLQVLEALVQEKQQLAAQLTSLEEQLARRAAGAQDTTMPESGVEVRCCCSANLATKHVEVHVEVTGPAAKRGDIVVHSCLLQCEIWATAAEQDTIAFANAEPSTTLVCSFAHADDLPLNVSASVAVGPAFGDSYRIHEVTVRVPRFVMYQLPYTIPPEQQRQRQGKTVTYQQPDGCVLLQWRELLRLDVIERWLRHSFCVPEDVALLDANAPTDPVLHLELIHVRDGSSFGIEVRNAAASGAAFNTITLWSDHLAPCGAVIDAFVEDLKGGWADGRADPVAVRCEMPLELERLRAIFARVDEFNEVRMKLTTDMADAATVVKTLLGRAEDARLLGDMASMKKSYAVLYDVDQELLCENAKRINNYEELKLALKEVNTCIQQAGMVRIGPARAQLIASCRNALKENQVNSLLEIIRTGSE,not soluble
8,MAHHHHHHMKSMRAVTMRAFGDVDVMHISEVTGVSLSRPSDVIIRVMAAGVNRADVSQRQGHYPPPKGSSEILGMEVSGVVEKVGENVKRFKEGDRVMALLTGGGYAEMAVAHEGSVMKIPEGYSFVEAAAIPEAFLTAWQALKLHGNLQKGQHMLFHAGASGVGTAALQLAEKYFRATAIATCSSGKVEFCKRFAKFVVDRSPDASGKCFSSKVRDAVKGETVNLIVDPVVGGTYLQEDGEVLAQDGKVVLLAFMGGAKVSLDVMPFFRKRASVIFSKLRDQTDEYKEALVRSFEEEVIPYMTRREIVPVVQCTYALEEVAAAHKLMENNKSNGKVILTVGKAE,soluble
9,MAHHHHHHMLCGSRATFARTAVAFFNMKHFQTKKKYNLTPQNIYETFSTVLLPRDRLLRQSVSGGGGSRVLVLDAQQRVKGVYLPVFCMPHPSTVTNGSNSLGVAVADYTRSIEATLAMHKAGGGGGTAPTLPTVLVVLSHPQGLAYGTFRADGTPGVPMKNLALAPILANARTQQASTNIASTPLRTSGLGTVMPLLNVSHRHAEVVRDIYTELNECEHVAELAACSTFVWVQRDNMSSMTFEKAQSSERYWERAKNDGDSAAAPPPGAISFLDRRWVLLMDVALHPDTGLGLYARDPATGDRIVNATGVQSALCRGLLLLDHVPRTVANTARAANRETGVSG,soluble
10,MAHHHHHHMLHNDKKNPREALDEEKPRKSNPGEVGTHRKARDTKGNKNKSGEGHITKVEGKADCEPHDVKRKGEKDKVLIQCKELQRKELEALKLIYVKDKELAIQNENDEKRDTIIHMHLNDENISDNVINLTFELPKDYPLKSFLLININVKNFTPDMNNYVNQEVYKDMPNYIAHENSILSIIYRINELVENIQNRKETLVDQSYSSSEEREENAEEEAFDSSKDQLIKDHVTFLYCSGMTYSQHRRVLARRLCYSHHILSLVKRTCIIKWAKELKIGGYSKIGYPGIIICEGPKEEVDFYINSLNKLRWKHFDCRGMDDIILKEYEDLDDARVLPKTMYELDPKGMSTLSNICTECGLRDLFLTSMKIYHS,not soluble
11,MAHHHHHHMLKCARYLFGPPNTKRKCAPLFSARNFSILERYIRAKPLSHELKIEEAKNEGIKGEGDRNGEERKASEKSASTYYPPNITRGVIPKSAYMNTWKIPEQPANPKFLKVALIGAPNAGKSSLLNSILNKTISAVSPKINTTRQDIKGIYTKDNVQLIFIDSPGIVPSHKKKKFCKELVSYAWKGYEEADLVLFIADTVKRPTHDVLNIIRMLAPKKVEAYSSGSEDEGETQHYMFNHPSEDHDQEEHFEWNGKPQSDLNSSSTNEELYEKSQKNVQKFVEYFSTAMEKEAKYSDKSVKENLLKNRKKIIESYSNDVDGKDSPNGEGEQQKLVPPVILVLNKVDLCTHNKWANARAKEFMSNGNFDNIFFISAKYNKGVEELLDYIAKFKAKNQFWVYPKDSNTTLTKVQVVEQLINTYLYCWFNKDVPYRVKHHMLSWCVNLNNSLIIEYQIVVKSPKVAKMICGVHNKLIINMRRNVSYKLTQLWGQNVYVHIHVKSVSA,not soluble
12,MAHHHHHHMLKHPQAALLFVHNSSDLFQNDTLGVLRNKTKIQNKKKISRFKIQSSEERHTDGGLHYDLTPENVEKVLNLIRPKLQIDNGDVELVDIKNNDLYIKLLGNCVTCSSNSVTVSQVIKKTLKMYIRNEKNEEPNVIITNFDEINEENIHSCLSDLKPYFDFLSKWHTGGGTPLGVMLGGRGSYSKEKRPFKGGDPSHSISSTPPPLKRAKRSTV,not soluble
13,MAHHHHHHMLKSSIVLLRRGKPRPRAGMFPEKYRRVPTLLKPQQGGQQYFNEFLIRSANDALEAQQQGYGSAFRVGGSGAARILADGNATAADGIHDGEISSVHPRLPQADIDGVLQRSRAETIQAELKQLVAQDGFISQRGFNERLWYEQEHHRLRTHGDGVEASPSEVAATAAASSSTAEAVSATGEGRAVPERILGDDYFQSKFGYSLLKGRSPDASAVADNVKAYAQLDLWGEMPMYSRDFVFLYLVSRRRNTYAVAYDYDGKRLLPTYTAGNRGLKGGDRGFRGDGSTDNGHQVTSMYLNDLLPKIREARAASGRPLGRGEKIDLVVRVMGFYNGRQGAVRAVQDRSADFRVRYLEDVTPFPLNGPKMPRGVFR,not soluble
14,MAHHHHHHMLLLLEREHPAVHAAVERILRGDSKIPVSVVRDFDGCEYHIRVEWDKEEKEMSQTSGVDSKDTGSGEVGTVNVGGTASVTVSLRSFTPFAELNTHGNFYEVLTTLFPSELQKFVVCDTHKGDGEDFTVAVHIPSNVPAKMLKEAMHSTAQLRAWSFVPAFARQFELFLTNPEVVQPLQLHYHDGEEMVVYNNRGSFIVAIALRVPSKDDAVLTRHFLQAMVEVRKHERSFCGSSAFIFEQGGPPDSVVAVTGPRGRVRDPNTFWCSFQLYKQQMEPPPRLVETVMHLVNFRTTLAYHIRAGRTYMHGIMRKRVESSLQWLNKAKARVAEETKITIT,not soluble
15,MAHHHHHHMLLSDAEAKITAVLKSLLDTPRTTYEVENLYQLNCERIAAVRAALADMSGDYVDQLCERCGEAEKQVQAKRAAGVASTAAADNAFSLDFALEEAEGQNEAEIESAISAAAHGSRRPKKSSGKEKSKKKEGEERHKKKEKRTLDDEPLVAPLPAGGGSCENNAADKATSSPSTRWVVLSRDDDLTSSEVLPALSTSDRVKCEAVPNTPLARVFFTEEVTRDGASCQCAVELYRCVVIAMRYGEPQLSWAECEKMMQSQVAAASKAGTIEDEGFDSRSAKRAGARSPKTSSDGDGEGAEDDSTSLVEEMTLSEQLIAQYDQAQQAEEEEEDADTLTLPRDISERFQQRLHGFTDEVWVILLCHGGYFAGGVFARGTCITHKAFQRYVVRKKQGGKQSSNAKDAGSYNSVGSQIRAVQEVKWRVDVRDILLDWMPYIQAASFILYAAPGPQNRAVLTDFSLLPAVASVGGRKGVSPIQLKDPRVSRVPLTTHRPTFEEVRRIYGVCSRCSLLYVRQEEAQERNTN,not soluble
16,MAHHHHHHMLQLTVEDLTPEAIAALEVQCKAQAEKVNQLEEAMGLLQKELDDARKKYRSTSKAVQWRRLMAEVENDEDIANITVMMQEALADFYKTMQPPDDYDESREGISFCDTDDYADLTSVETKVDEFLLAIRRLVGENCASPEDDGDRRHQRRRALLMLLVLTINAARITDTPTEDAASLMEEQQDNIASLWQTLLHTDSGLVEAEKSEWKDIVSSFLGPPYDTST,soluble
